Experimental data taken from PMC4139307, “Transforming Growth Factor-β1 Signaling Represses Testicular Steroidogenesis through Cross-Talk with Orphan Nuclear Receptor Nur77”.

Biological target: GST-Nur77 (UniProt P12813 1-601)
Experiment: EMSA; not given in material (EMSA according to previously described procedures, ref 34)
Conditions: protein: recombinant; tags: GST; label: 32P (alpha-32P dCTP labeling); annealed to complementary oligonucleotide

Sequence of GST-Nur77 (P12813 whole entry): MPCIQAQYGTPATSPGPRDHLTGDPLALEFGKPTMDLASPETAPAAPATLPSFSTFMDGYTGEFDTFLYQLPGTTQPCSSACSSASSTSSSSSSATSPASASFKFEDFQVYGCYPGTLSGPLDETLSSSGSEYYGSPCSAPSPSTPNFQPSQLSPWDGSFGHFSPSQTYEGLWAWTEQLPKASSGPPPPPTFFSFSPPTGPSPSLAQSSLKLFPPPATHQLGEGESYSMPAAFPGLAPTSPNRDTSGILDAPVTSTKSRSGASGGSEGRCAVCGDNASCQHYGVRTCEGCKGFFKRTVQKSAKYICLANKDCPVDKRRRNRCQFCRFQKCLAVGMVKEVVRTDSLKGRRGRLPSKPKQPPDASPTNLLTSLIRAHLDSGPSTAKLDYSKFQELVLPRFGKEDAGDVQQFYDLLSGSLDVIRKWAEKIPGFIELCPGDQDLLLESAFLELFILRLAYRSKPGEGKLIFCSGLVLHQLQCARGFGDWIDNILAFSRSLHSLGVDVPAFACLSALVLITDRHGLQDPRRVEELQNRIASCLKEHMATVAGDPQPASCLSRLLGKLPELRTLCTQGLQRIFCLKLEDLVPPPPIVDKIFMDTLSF

B1: NBRE oligonucleotide (dsDNA)
DNA 1: GGGGCTCGTGCGAAAAGGTCAAGCGCTA
DNA 2: TAGCGCTTGACCTTTTCGCACGAGCCCC
B1: binds.
